According to IntAct's records for PubMed 11069292:

B1: Transcription factor PIF3 (Arabidopsis thaliana (Mouse-ear cress)), O80536 (parent)
chain: MPLFELFRLTKAKLESAQDRNPSPPVDEVVELVWENGQISTQSQSSRSRNIPPPQANSSRAREIGNGSKTTMVDEIPMSVPSLMTGLSQDDDFVPWLNHHPSLDGYCSDFLRDVSSPVTVNEQESDMAVNQTAFPLFQRRKDGNESAPAASSSQYNGFQSHSLYGSDRARDLPSQQTNPDRFTQTQEPLITSNKPSLVNFSHFLRPATFAKTTNNNLHDTKEKSPQSPPNVFQTRVLGAKDSEDKVLNESVASATPKDNQKACLISEDSCRKDQESEKAVVCSSVGSGNSLDGPSESPSLSLKRKHSNIQDIDCHSEDVEEESGDGRKEAGPSRTGLGSKRSRSAEVHNLSERRRRDRINEKMRALQELIPNCNKVDKASMLDEAIEYLKSLQLQVQIMSMASGYYLPPAVMFPPGMGHYPAAAAAMAMGMGMPYAMGLPDLSRGGSSVNHGPQFQVSGMQQQPVAMGIPRVSGGGIFAGSSTIGNGSTRDLSGSKDQTTTNNNSNLKPIKRKQGSSDQFCGSS

Variants of: B1
Conditions: with phyb_arath PHYB

Question: With G165V as the variant, how does the “effect of a mutation on the interaction” value read?
Answer: decreasing interaction
